The results in this text go back to PMC2132707.

Where “and” joins values, the source holds several entries; their conditions need not be identical. Equal entries are not always repeated.

The target in this experiment is heavy chains (Iα and Iβ) of inner arm dynein I1 (Chlamydomonas reinhardtii (endogenous in axonemes)) (UniProt Q9SMH3). Nature of the experiment: quantitative densitometry of Coomassie blue-stained gels.
“Chlamydomonas 8,000-M r LC (natural protein)” came in with a most likely relative stoichiometry (relative to the HCs) (relative to the HCs) of 4 to 5.5 and a relative stoichiometry (relative to the HCs) (relative to the HCs) of 4 to 5.5.

“IC97 of inner arm dynein I1 (natural protein)”: the most likely relative stoichiometry (relative to the HCs) (relative to the HCs) was in the range of 0.5 to 1; the relative stoichiometry (relative to the HCs) (relative to the HCs) is 0.95 and 0.67 and 0.56.

In the case of “IC140 of inner arm dynein I1 (natural protein)”, the most likely relative stoichiometry (relative to the HCs) (relative to the HCs) was 0.5 to 1; the relative stoichiometry (relative to the HCs) (relative to the HCs) was 0.71 and 0.53 and 0.63.
